B1: USP53 (protein, UniProt Q70EK8 1-1073, looked up)
Ubiquitin carboxyl-terminal …: MAWVKFLRKPGGNLGKVYQPGSMLSLAPTKGLLNEPGQNSCFLNSAVQVLWQLDIFRRSLRVLTGHVCQGDACIFCALKTIFAQFQHSREKALPSDNIRHALAESFKDEQRFQLGLMDDAAECFENMLERIHFHIVPSRDADMCTSKSCITHQKFAMTLYEQCVCRSCGASSDPLPFTEFVRYISTTALCNEVERMLERHERFKPEMFAELLQAANTTDDYRKCPSNCGQKIKIRRVLMNCPEIVTIGLVWDSEHSDLTEAVVRNLATHLYLPGLFYRVTDENAKNSELNLVGMICYTSQHYCAFAFHTKSSKWVFFDDANVKEIGTRWKDVVSKCIRCHFQPLLLFYANPDGTAVSTEDALRQVISWSHYKSVAENMGCEKPVIHKSDNLKENGFGDQAKQRENQKFPTDNISSSNRSHSHTGVGKGPAKLSHIDQREKIKDISRECALKAIEQKNLLSSQRKDLEKGQRKDLGRHRDLVDEDLSHFQSGSPPAPNGFKQHGNPHLYHSQGKGSYKHDRVVPQSRASAQIISSSKSQILAPGEKITGKVKSDNGTGYDTDSSQDSRDRGNSCDSSSKSRNRGWKPMRETLNVDSIFSESEKRQHSPRHKPNISNKPKSSKDPSFSNWPKENPKQKGLMTIYEDEMKQEIGSRSSLESNGKGAEKNKGLVEGKVHGDNWQMQRTESGYESSDHISNGSTNLDSPVIDGNGTVMDISGVKETVCFSDQITTSNLNKERGDCTSLQSQHHLEGFRKELRNLEAGYKSHEFHPESHLQIKNHLIKRSHVHEDNGKLFPSSSLQIPKDHNAREHIHQSDEQKLEKPNECKFSEWLNIENSERTGLPFHVDNSASGKRVNSNEPSSLWSSHLRTVGLKPETAPLIQQQNIMDQCYFENSLSTECIIRSASRSDGCQMPKLFCQNLPPPLPPKKYAITSVPQSEKSESTPDVKLTEVFKATSHLPKHSLSTASEPSLEVSTHMNDERHKETFQVRECFGNTPNCPSSSSTNDFQANSGAIDAFCQPELDSISTCPNETVSLTTYFSVDSCMTDTYRLKYHQRPKLSFPESSGFCNNSLS
B2: RRP12 (protein, UniProt Q5JTH9 1-1297, looked up)
RRP12-like protein: MGRSGKLPSGVSAKLKRWKKGHSSDSNPAICRHRQAARSRFFSRPSGRSDLTVDAVKLHNELQSGSLRLGKSEAPETPMEEEAELVLTEKSSGTFLSGLSDCTNVTFSKVQRFWESNSAAHKEICAVLAAVTEVIRSQGGKETETEYFAALMTTMEAVESPESLAAVAYLLNLVLKRVPSPVLIKKFSDTSKAFMDIMSAQASSGSTSVLRWVLSCLATLLRKQDLEAWGYPVTLQVYHGLLSFTVHPKPKIRKAAQHGVCSVLKGSEFMFEKAPAHHPAAISTAKFCIQEIEKSGGSKEATTTLHMLTLLKDLLPCFPEGLVKSCSETLLRVMTLSHVLVTACAMQAFHSLFHARPGLSTLSAELNAQIITALYDYVPSENDLQPLLAWLKVMEKAHINLVRLQWDLGLGHLPRFFGTAVTCLLSPHSQVLTAATQSLKEILKECVAPHMADIGSVTSSASGPAQSVAKMFRAVEEGLTYKFHAAWSSVLQLLCVFFEACGRQAHPVMRKCLQSLCDLRLSPHFPHTAALDQAVGAAVTSMGPEVVLQAVPLEIDGSEETLDFPRSWLLPVIRDHVQETRLGFFTTYFLPLANTLKSKAMDLAQAGSTVESKIYDTLQWQMWTLLPGFCTRPTDVAISFKGLARTLGMAISERPDLRVTVCQALRTLITKGCQAEADRAEVSRFAKNFLPILFNLYGQPVAAGDTPAPRRAVLETIRTYLTITDTQLVNSLLEKASEKVLDPASSDFTRLSVLDLVVALAPCADEAAISKLYSTIRPYLESKAHGVQKKAYRVLEEVCASPQGPGALFVQSHLEDLKKTLLDSLRSTSSPAKRPRLKCLLHIVRKLSAEHKEFITALIPEVILCTKEVSVGARKNAFALLVEMGHAFLRFGSNQEEALQCYLVLIYPGLVGAVTMVSCSILALTHLLFEFKGLMGTSTVEQLLENVCLLLASRTRDVVKSALGFIKVAVTVMDVAHLAKHVQLVMEAIGKLSDDMRRHFRMKLRNLFTKFIRKFGFELVKRLLPEEYHRVLVNIRKAEARAKRHRALSQAAVEEEEEEEEEEEPAQGKGDSIEEILADSEDEEDNEEEERSRGKEQRKLARQRSRAWLKEGGGDEPLNFLDPKVAQRVLATQPGPGRGRKKDHGFKVSADGRLIIREEADGNKMEEEEGAKGEDEEMADPMEDVIIRNKKHQKLKHQKEAEEEELEIPPQYQAGGSGIHRPVAKKAMPGAEYKAKKAKGDVKKKGRPDPYAYIPLNRSKLNRRKKMKLQGQFKGLVKAARRGSQVGHKNRRKDRRP
B3: HDLBP (protein, UniProt Q00341 2-1268, looked up)
Vigilin: SSVAVLTQESFAEHRSGLVPQQIKVATLNSEEESDPPTYKDAFPPLPEKAACLESAQEPAGAWGNKIRPIKASVITQVFHVPLEERKYKDMNQFGEGEQAKICLEIMQRTGAHLELSLAKDQGLSIMVSGKLDAVMKARKDIVARLQTQASATVAIPKEHHRFVIGKNGEKLQDLELKTATKIQIPRPDDPSNQIKITGTKEGIEKARHEVLLISAEQDKRAVERLEVEKAFHPFIAGPYNRLVGEIMQETGTRINIPPPSVNRTEIVFTGEKEQLAQAVARIKKIYEEKKKKTTTIAVEVKKSQHKYVIGPKGNSLQEILERTGVSVEIPPSDSISETVILRGEPEKLGQALTEVYAKANSFTVSSVAAPSWLHRFIIGKKGQNLAKITQQMPKVHIEFTEGEDKITLEGPTEDVNVAQEQIEGMVKDLINRMDYVEINIDHKFHRHLIGKSGANINRIKDQYKVSVRIPPDSEKSNLIRIEGDPQGVQQAKRELLELASRMENERTKDLIIEQRFHRTIIGQKGERIREIRDKFPEVIINFPDPAQKSDIVQLRGPKNEVEKCTKYMQKMVADLVENSYSISVPIFKQFHKNIIGKGGANIKKIREESNTKIDLPAENSNSETIIITGKRANCEAARSRILSIQKDLANIAEVEVSIPAKLHNSLIGTKGRLIRSIMEECGGVHIHFPVEGSGSDTVVIRGPSSDVEKAKKQLLHLAEEKQTKSFTVDIRAKPEYHKFLIGKGGGKIRKVRDSTGARVIFPAAEDKDQDLITIIGKEDAVREAQKELEALIQNLDNVVEDSMLVDPKHHRHFVIRRGQVLREIAEEYGGVMVSFPRSGTQSDKVTLKGAKDCVEAAKKRIQEIIEDLEAQVTLECAIPQKFHRSVMGPKGSRIQQITRDFSVQIKFPDREENAVHSTEPVVQENGDEAGEGREAKDCDPGSPRRCDIIIISGRKEKCEAAKEALEALVPVTIEVEVPFDLHRYVIGQKGSGIRKMMDEFEVNIHVPAPELQSDIIAITGLAANLDRAKAGLLERVKELQAEQEDRALRSFKLSVTVDPKYHPKIIGRKGAVITQIRLEHDVNIQFPDKDDGNQPQDQITITGYEKNTEAARDAILRIVGELEQMVSEDVPLDHRVHARIIGARGKAIRKIMDEFKVDIRFPQSGAPDPNCVTVTGLPENVEEAIDHILNLEEEYLADVVDSEALQVYMKPPAHEEAKAPSRGFVVRDAPWTASSSEKAPDMSSSEEFPSFGAQVAPKTLPWGPKR
B4: SLC39A7 (protein, UniProt Q92504 1-469, looked up)
Zinc transporter SLC39A7: MARGLGAPHWVAVGLLTWATLGLLVAGLGGHDDLHDDLQEDFHGHSHRHSHEDFHHGHSHAHGHGHTHESIWHGHTHDHDHGHSHEDLHHGHSHGYSHESLYHRGHGHDHEHSHGGYGESGAPGIKQDLDAVTLWAYALGATVLISAAPFFVLFLIPVESNSPRHRSLLQILLSFASGGLLGDAFLHLIPHALEPHSHHTLEQPGHGHSHSGQGPILSVGLWVLSGIVAFLVVEKFVRHVKGGHGHSHGHGHAHSHTRGSHGHGRQERSTKEKQSSEEEEKETRGVQKRRGGSTVPKDGPVRPQNAEEEKRGLDLRVSGYLNLAADLAHNFTDGLAIGASFRGGRGLGILTTMTVLLHEVPHEVGDFAILVQSGCSKKQAMRLQLLTAVGALAGTACALLTEGGAVGSEIAGGAGPGWVLPFTAGGFIYVATVSVLPELLREASPLQSLLEVLGLLGGVIMMVLIAHLE
B5: SLC3A2 (protein, UniProt P08195 1-630, looked up)
Amino acid transporter heavy …: MELQPPEASIAVVSIPRQLPGSHSEAGVQGLSAGDDSELGSHCVAQTGLELLASGDPLPSASQNAEMIETGSDCVTQAGLQLLASSDPPALASKNAEVTGTMSQDTEVDMKEVELNELEPEKQPMNAASGAAMSLAGAEKNGLVKIKVAEDEAEAAAAAKFTGLSKEELLKVAGSPGWVRTRWALLLLFWLGWLGMLAGAVVIIVRAPRCRELPAQKWWHTGALYRIGDLQAFQGHGAGNLAGLKGRLDYLSSLKVKGLVLGPIHKNQKDDVAQTDLLQIDPNFGSKEDFDSLLQSAKKKSIRVILDLTPNYRGENSWFSTQVDTVATKVKDALEFWLQAGVDGFQVRDIENLKDASSFLAEWQNITKGFSEDRLLIAGTNSSDLQQILSLLESNKDLLLTSSYLSDSGSTGEHTKSLVTQYLNATGNRWCSWSLSQARLLTSFLPAQLLRLYQLMLFTLPGTPVFSYGDEIGLDAAALPGQPMEAPVMLWDESSFPDIPGAVSANMTVKGQSEDPGSLLSLFRRLSDQRSKERSLLHGDFHAFSAGPGLFSYIRHWDQNERFLVVLNFGDVGLSAGLQASDLPASASLPAKADLLLSTQPGREEGSPLELERLKLEPHEGLLLRFPYAA
B6: DDX17 (protein, UniProt Q92841 1-729, looked up)
Probable ATP-dependent RNA …: MPTGFVAPILCVLLPSPTREAATVASATGDSASERESAAPAAAPTAEAPPPSVVTRPEPQALPSPAIRAPLPDLYPFGTMRGGGFGDRDRDRDRGGFGARGGGGLPPKKFGNPGERLRKKKWDLSELPKFEKNFYVEHPEVARLTPYEVDELRRKKEITVRGGDVCPKPVFAFHHANFPQYVMDVLMDQHFTEPTPIQCQGFPLALSGRDMVGIAQTGSGKTLAYLLPAIVHINHQPYLERGDGPICLVLAPTRELAQQVQQVADDYGKCSRLKSTCIYGGAPKGPQIRDLERGVEICIATPGRLIDFLESGKTNLRRCTYLVLDEADRMLDMGFEPQIRKIVDQIRPDRQTLMWSATWPKEVRQLAEDFLRDYTQINVGNLELSANHNILQIVDVCMESEKDHKLIQLMEEIMAEKENKTIIFVETKRRCDDLTRRMRRDGWPAMCIHGDKSQPERDWVLNEFRSGKAPILIATDVASRGLDVEDVKFVINYDYPNSSEDYVHRIGRTARSTNKGTAYTFFTPGNLKQARELIKVLEEANQAINPKLMQLVDHRGGGGGGGGRSRYRTTSSANNPNLMYQDECDRRLRGVKDGGRRDSASYRDRSETDRAGYANGSGYGSPNSAFGAQAGQYTYGQGTYGAAAYGTSSYTAQEYGAGTYGASSTTSTGRSSQSSSQQFSGIGRSGQQPQPLMSQQFAQPPGATNMIGYMGQTAYQYPPPPPPPPPSRK

Tested on: GFP-14-3-3β and its binding proteins
Test: GFP-14-3-3β co-IP with LC-MS/MS label-free quantification, untreated versus PP1c-treated
Parameters: species or system human
Conditions: log2 difference; pairwise comparison PP1 vs untreated, label-free quantification, 3 replicates each

Molecule | Difference (log2), PP1 vs untreated
B1 | 1.978

Same assay, conditions: pairwise comparison PP1 vs untreated

Molecule | Difference (log2), PP1 vs untreated [log2]
B2 | 0.1167
B3 | 0.06756
B4 | 0.1123
B5 | 0.07419
B6 | 0.07996

Tested on: GFP-14-3-3β
Test: GFP-14-3-3β co-IP with LC-MS/MS, untreated GFP-14-3-3β versus GFP control (14-3-3 interactome)
Type: binding, human
Conditions: log2 difference; pairwise comparison untreated vs GFP, label-free quantification, 3 replicates each

Molecule | Difference (log2), untreated vs GFP
B1 | 5.4971

Same assay, conditions: pairwise comparison untreated vs GFP

Molecule | Difference (log2), untreated vs GFP [log2]
B2 | 0.888
B3 | 0.159
B4 | 0.9479
B5 | 0.2155
B6 | 0.6933
